Reference: article doi:10.1101/2020.01.22.915298 (bioRxiv, 2020)

How the values were obtained:
[1] = target: Heparin-Binding EGF-like Growth Factor, recombinant (UniProt Q99075); test: SPR
[2] = target: diphtheria toxin receptor-binding fragment (lysosomal targeting moiety) (Corynebacterium diphtheriae, UniProt P00588 418-567); test: SPR
Sequence of diphtheria toxin receptor-binding fragment (lysosomal targeting moiety) (P00588 418-567): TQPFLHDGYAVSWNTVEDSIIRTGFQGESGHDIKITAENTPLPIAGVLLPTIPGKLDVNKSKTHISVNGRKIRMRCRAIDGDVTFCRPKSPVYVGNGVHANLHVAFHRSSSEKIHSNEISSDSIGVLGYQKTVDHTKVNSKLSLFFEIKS

Molecule | Kd [1] | Kd [2]
LTM-TPP1 (TPP1 with an N-terminal LTM fusion) | 19.1 nM | 
Heparin-Binding EGF-like Growth Factor, recombinant (receptor, UniProt Q99075 63-148, looked up) DLQEADLDLLRVTLSSKPQALATPNKEEHGKRKKKGKGLGKKRDPCLRKYKDFCIHGECKYVKELRAPSCICHPGYHGERCHGLSL |  | 13.3 nM
